Measured values from the RNAGym collection of RNA variant scans (doi:10.1093/nar/gkz1192).

B1: CPEB3 Ribozyme (parent)
chain: UAACAGGGGGCCACAGCAGAAGCGUUCACGUCGCAGCCCCUGUCAGAUUCUGGUGAAUCUGCGAAUUCUGCUGUAUAUCUC

Variants of: B1
Assay: self-cleavage, relative activity (ratio to wild type); higher = more cleavage; in vitro, sequencing
Outline: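 After error-prone PCR and barcoding, CPEB3 ribozyme mutant libraries were transcribed with T7 RNA polymerase at 37°C for 5 hours, then given 15 min with DNase I before an EDTA stop, and they cleaved during both steps. Reverse transcription with template switching preceded Illumina sequencing. Relative activity divides a variant's cleaved/total read fraction by the unmutated ribozyme's. At least 5 reads were required per variant, and three batches were averaged.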

Variant | self-cleavage
UUUCAGGGGGCCACAGCAGAAGCGUUCACGUCGCAGCCCCUGUCAGAUUCUGGUGAAUCUGCGAAUUCUGCUGUAUAUCUC [A2U A3U] | 1.04
UUACAGGGGGCCACAGCAGAAGCGUUCACGUCGCAGCCCCUGUCAGAUUCUGGUGAAUCUGCGUAUUCUGCUGUAUAUCUC [A2U A64U] | 0.28
UUACAGGGGGCCACAGCAGAAGCGUUCACGUCGCAGCCCCUGUCAGAUUCUGGUGAAUCUGCGGAUUCUGCUGUAUAUCUC [A2U A64G] | 0.83
UUACGGGGGGCCACAGCAGAAGCGUUCACGUCGCAGCCCCUGUCAGAUUCUGGUGAAUCUGCGAAUUCUGCUGUAUAUCUC [A2U A5G] | 0.71
UUACUGGGGGCCACAGCAGAAGCGUUCACGUCGCAGCCCCUGUCAGAUUCUGGUGAAUCUGCGAAUUCUGCUGUAUAUCUC [A2U A5U] | 1.09
UUACAGGGGGCCACAGCAGAAGCGUUCACGUCGCAGCCCCUGUCAGAUUCUGGUGAGUCUGCGAAUUCUGCUGUAUAUCUC [A2U A57G] | 0.83
UUACAGGGGGCCUCAGCAGAAGCGUUCACGUCGCAGCCCCUGUCAGAUUCUGGUGAAUCUGCGAAUUCUGCUGUAUAUCUC [A2U A13U] | 1.08
UUACAGGGGGCCGCAGCAGAAGCGUUCACGUCGCAGCCCCUGUCAGAUUCUGGUGAAUCUGCGAAUUCUGCUGUAUAUCUC [A2U A13G] | 0.84
UUACAGGGGGCCACAGCAGAAGCGUUCACGUCGCAGCCCCUGUCAGAUUCUGGUGAAUCUGCGAAUUCUGCUGUGUAUCUC [A2U A75G] | 1.04
UUACAGGGGGCCACAGCAGAAGCGUUCACGUCGCAGCCCCUGUCAGAUUCUGGUGAAUCUGCGAAUUCUGCUGUUUAUCUC [A2U A75U] | 1.09
UUACAGGGGGCCACAGCAGAAGCGUUCUCGUCGCAGCCCCUGUCAGAUUCUGGUGAAUCUGCGAAUUCUGCUGUAUAUCUC [A2U A28U] | 0.82
UUACAGGGGGCCACAGCAGAAGCGUUCGCGUCGCAGCCCCUGUCAGAUUCUGGUGAAUCUGCGAAUUCUGCUGUAUAUCUC [A2U A28G] | 0.65
UUACAGGGGGCCACAGCGGAAGCGUUCACGUCGCAGCCCCUGUCAGAUUCUGGUGAAUCUGCGAAUUCUGCUGUAUAUCUC [A2U A18G] | 0.89
UUACAGGGGGCCACAGCCGAAGCGUUCACGUCGCAGCCCCUGUCAGAUUCUGGUGAAUCUGCGAAUUCUGCUGUAUAUCUC [A2U A18C] | 0.28
UUACAGGGGGCCACAGCUGAAGCGUUCACGUCGCAGCCCCUGUCAGAUUCUGGUGAAUCUGCGAAUUCUGCUGUAUAUCUC [A2U A18U] | 0.41
UUACAGGGGGCCACAGCAGAAGCGUUCACGUCGCUGCCCCUGUCAGAUUCUGGUGAAUCUGCGAAUUCUGCUGUAUAUCUC [A2U A35U] | 0.49
UUACAGGGGGCCACAGCAGAAGCGUUCACGUCGCGGCCCCUGUCAGAUUCUGGUGAAUCUGCGAAUUCUGCUGUAUAUCUC [A2U A35G] | 1.19

Variant | self-cleavage
UUACAGGGGGCCACAGCAGAAGCGUUCACGUCGCCGCCCCUGUCAGAUUCUGGUGAAUCUGCGAAUUCUGCUGUAUAUCUC [A2U A35C] | 0.85
UUACAGGGGGCCACAGCAGAAGCGUUCACGUCGCAGCCCCUGUCAGAUUCUGGUGAAUCUGCGAAUUCUGCUGUAUGUCUC [A2U A77G] | 1.04
UUACAGGGGGCCACAGCAGAAGCGUUCACGUCGCAGCCCCUGUCAGAUUCUGGUGAAUCUGCGAUUUCUGCUGUAUAUCUC [A2U A65U] | 0.29
UUACAGGGGGCCACAGCAGAAGCGUUCACGUCGCAGCCCCUGUCAGAUUCUGGUGAAUCUGCGAGUUCUGCUGUAUAUCUC [A2U A65G] | 0.26
UUACAGGGGGCCACAGCAGGAGCGUUCACGUCGCAGCCCCUGUCAGAUUCUGGUGAAUCUGCGAAUUCUGCUGUAUAUCUC [A2U A20G] | 0.69
UUACAGGGGGCCACAGCAGUAGCGUUCACGUCGCAGCCCCUGUCAGAUUCUGGUGAAUCUGCGAAUUCUGCUGUAUAUCUC [A2U A20U] | 0.41
UUACAGGGGGCCACAGCAGCAGCGUUCACGUCGCAGCCCCUGUCAGAUUCUGGUGAAUCUGCGAAUUCUGCUGUAUAUCUC [A2U A20C] | 0.32
UUACAGGGGGCCACAGCAGAAGCGUUCACGUCGCAGCCCCUGUCAGGUUCUGGUGAAUCUGCGAAUUCUGCUGUAUAUCUC [A2U A47G] | 1.11
UUACAGGGGGCCACAGCAGAGGCGUUCACGUCGCAGCCCCUGUCAGAUUCUGGUGAAUCUGCGAAUUCUGCUGUAUAUCUC [A2U A21G] | 0.56
UUACAGGGGGCCACAGCAGAUGCGUUCACGUCGCAGCCCCUGUCAGAUUCUGGUGAAUCUGCGAAUUCUGCUGUAUAUCUC [A2U A21U] | 0.29
UUACAGGGGGCCACAGCAGAAGCGUUCACGUCGCAGCCCCUGUCGGAUUCUGGUGAAUCUGCGAAUUCUGCUGUAUAUCUC [A2U A45G] | 0.85
UUACAGGGGGCCACAGCAGAAGCGUUCACGUCGCAGCCCCUGUCUGAUUCUGGUGAAUCUGCGAAUUCUGCUGUAUAUCUC [A2U A45U] | 0.54
UUACAGGGGGCCACUGCAGAAGCGUUCACGUCGCAGCCCCUGUCAGAUUCUGGUGAAUCUGCGAAUUCUGCUGUAUAUCUC [A2U A15U] | 0.41
UUACAGGGGGCCACGGCAGAAGCGUUCACGUCGCAGCCCCUGUCAGAUUCUGGUGAAUCUGCGAAUUCUGCUGUAUAUCUC [A2U A15G] | 0.8
UUACAGGGGGCCACAGCAGAAGCGUUCACGUCGCAGCCCCUGUCAGAUUCUGGUGUAUCUGCGAAUUCUGCUGUAUAUCUC [A2U A56U] | 0.4
UUACAGGGGGCCACAGCAGAAGCGUUCACGUCGCAGCCCCUGUCAGAUUCUGGUGGAUCUGCGAAUUCUGCUGUAUAUCUC [A2U A56G] | 0.88
UUACAGGGGGCCACAGCAGAAGCGUUCACGUCGCAGCCCCUGUCAGAUUCUGGUGCAUCUGCGAAUUCUGCUGUAUAUCUC [A2U A56C] | 0.73
